What all share (test): SPOT array
For assay [1], the target named is T1, Boi1 SH3 (BOI1_YEAST), P38041.
T1 chain: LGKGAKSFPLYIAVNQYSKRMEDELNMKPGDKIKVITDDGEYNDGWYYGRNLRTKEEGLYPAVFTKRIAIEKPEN

Assay [2] addresses T2, Yfr024 SH3 (LSB3_YEAST), P43603.
T2 chain: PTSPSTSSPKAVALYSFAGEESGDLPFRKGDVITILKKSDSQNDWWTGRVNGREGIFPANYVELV

The target of assay [3] is T3, Rvs167 SH3 (RV167_YEAST), P39743.
T3 chain: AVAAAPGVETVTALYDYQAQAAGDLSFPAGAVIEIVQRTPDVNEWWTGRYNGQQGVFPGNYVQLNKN

The target in assay [4] is T4, Boi2 SH3 (BOI2_YEAST), P39969.
T4 chain: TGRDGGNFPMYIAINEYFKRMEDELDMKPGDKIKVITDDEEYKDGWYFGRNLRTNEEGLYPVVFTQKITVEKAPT

Assay [5] concerns the target T5, Yhr016c SH3 (YSC84_YEAST), P32793.
T5 chain: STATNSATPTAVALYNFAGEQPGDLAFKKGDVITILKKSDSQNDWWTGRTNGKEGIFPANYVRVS

On to KLRPDLPVKNFVVK [YFR030W 641-654], for which the normalised SPOT signal, Boehringer light units (BLU); mean over the file's lines of this peptide in assay [1] turned out to be 239; in assay [2], 10700; in assay [3], 86.7; in assay [4], 15.3; in assay [5], 95.4.
As to KKPPKIPKKVYTLE [YPR104C 439-452], the normalised SPOT signal, Boehringer light units (BLU); mean over the file's lines of this peptide in assay [1] came to 56.8; in assay [2], 1300; in assay [3], 33.3; in assay [4] it was 22; in assay [5], 112.
For the molecule KLKPSLPNKLVGKY [YPL242C 77-90], the normalised SPOT signal, Boehringer light units (BLU); mean over the file's lines of this peptide in assay [1] turned out to be 9.1; in assay [2], 3700; in assay [3], 45.3; in assay [4] it was 34.1; in assay [5], 0.
On to KISPSAPSKDSFTK [YAR002W 350-363], for which the normalised SPOT signal, Boehringer light units (BLU); mean over the file's lines of this peptide in assay [1] was determined as 160; in assay [2], 178; in assay [3], 79.2; in assay [4] it was 1.3; in assay [5], 92.4.
As to KKDPFPPPKDLLVQ [YGR140W 421-434], the normalised SPOT signal, Boehringer light units (BLU); mean over the file's lines of this peptide in assay [1] was determined as 103; in assay [2], 332; in assay [3] it was 12.2; in assay [4], 49.2; in assay [5], 109.
In the same order, the values of KMTPSTPVRSISPI [YJR092W 851-864] are 181, 13400, 280, 71.2 and 2960.
Regarding KKSPRLPHRNKKVT [YPR097W 347-360], the normalised SPOT signal, Boehringer light units (BLU); mean over the file's lines of this peptide in assay [1] stood at 110; in assay [2], 7040; in assay [3], 2650; in assay [4], 46.7; in assay [5] it was 1790.
Regarding KFIPNKPYRQFNTW [YGR019W 339-352], the normalised SPOT signal, Boehringer light units (BLU); mean over the file's lines of this peptide in assay [1] is 30.9; in assay [2], 1220; in assay [3], 51.7; in assay [4], 55.9; in assay [5] it was 417.
The like results for KIMPPTPAKKVEFI [YAL024C 312-325] were, in that order, 32, 3000, 178, 180 and 682.
In the same order, the values of KKDPNAPKRRLSAY [YBR089C-A 21-34] are 190, 241, 151, 46.3 and 288.
In the same order, the values of KKYPRKPKKNLNLG [YDR485C 336-349] are 181, 149, 9.5, 68.1 and 408.
For the molecule KGAPFFPNKTFRKL [YPR144C 138-151], the normalised SPOT signal, Boehringer light units (BLU); mean over the file's lines of this peptide in assay [1] worked out at 142; in assay [2] it was 995; in assay [3], 83.7; in assay [4], 64.9; in assay [5] it was 792.
Regarding KMFPFNPAKIKKDD [YLR115W 535-548], the normalised SPOT signal, Boehringer light units (BLU); mean over the file's lines of this peptide in assay [1] is 112; in assay [2], 2490; in assay [3], 425; in assay [4], 343; in assay [5], 404.
The like results for KLGPDTPIKVAGPL [YOR219C 616-629] were, in that order, 17.6, 196, 66, 16.9 and 105.
The like results for KKDPNAPKRALSAY [YPR052C 15-28] were, in that order, 57, 286, 25.3, 19.5 and 162.
The like results for KHAPFIPVKPALEK [YPR095C 158-171] were, in that order, 92, 907, 21.7, 27.4 and 65.2.
On to KLPPRLPHRAAQRR [YIR018W 29-42], for which the normalised SPOT signal, Boehringer light units (BLU); mean over the file's lines of this peptide in assay [1] was 20000; in assay [2] it was 30600; in assay [3] it was 11100; in assay [4] it was 219; in assay [5], 21700.
The like results for KKLPTGPSKKRQRK [YER164W 1280-1293] were, in that order, 136, 808, 9.1, 32.6 and 85.9.
Regarding KLEPENPQKPSNTH [YFL054C 238-251], the normalised SPOT signal, Boehringer light units (BLU); mean over the file's lines of this peptide in assay [1] was found to be 76; in assay [2], 11.4; in assay [3], 15.8; in assay [4], 90.6; in assay [5] it was 94.6.

(Values after paper PMC314469, “Protein Interaction Networks by Proteome Peptide Scanning” (PLoS Biology, 2004).)
